Experiments:
[1] = molecular target: HiLyteFluor488-labeled amyloid-β(1-40) fibrils (UniProt P05067); assay: confocal two-color coincidence detection
[2] = molecular target: HiLyteFluor488-labeled amyloid-β(1-40) oligomers formed from the disaggregation of fibrils (UniProt P05067); assay: confocal two-color coincidence detection
[3] = molecular target: HiLyteFluor488-labeled amyloid-β(1-40) fibrils (UniProt P05067)

Chain of HiLyteFluor488-labeled amyloid-β(1-40) fibrils (P05067 672-711): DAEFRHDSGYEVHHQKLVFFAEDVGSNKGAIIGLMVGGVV
Chain of HiLyteFluor488-labeled amyloid-β(1-40) oligomers formed from the disaggregation of fibrils (P05067 672-711): as above

Kd [3]: 1200 nM
Substance: AlexaFluor647-labeled αB-crystallin (from UniProt P02511 1-175) (natural protein)
koff [1]: 4.4e-05 s⁻¹
half-time for dissociation [2]: 17 h
stoichiometry N (αB-crystallin molecule per Aβ monomer) [2]: 1
